Measurements as given in paper PMC6234845 (Biochemistry, 2018).

Tests used:
[1] = target: Src13-GCN4-EGFP / Src13-GCN4-mCH; experiment: PIE-FCCS
PIE-FCCS = target: the molecule itself; experiment: PIE-FCCS

Molecule | fc, fraction correlated [1] | fc (mean), fraction correlated (PIE-FCCS) | fc (median), fraction correlated (PIE-FCCS)
Src13-GCN4-EGFP / Src13-GCN4-mCH | 0.13 |  | 
wild type rod opsin-EGFP / rod opsin-mCherry (receptor, mouse, UniProt P15409 1-348, looked up) MNGTEGPNFYVPFSNVTGVVRSPFEQPQYYLAEPWQFSMLAAYMFLLIVLGFPINFLTLYVTVQHKKLRTPLNYILLNLAVADLFMVFGGFTTTLYTSLHGYFVFGPTGCNLEGFFATLGGEIALWSLVVLAIERYVVVCKPMSNFRFGENHAIMGVVFTWIMALACAAPPLVGWSRYIPEGMQCSCGIDYYTLKPEVNNESFVIYMFVVHFTIPMIVIFFCYGQLVFTVKEAAAQQQESATTQKAEKEVTRMVIIMVIFFLICWLPYASVAFYIFTHQGSNFGPIFMTLPAFFAKSSSIYNPVIYIMLNKQFRNCMLTTLCCGKNPLGDDDASATASKTETSQVAPA |  | 0.114 | 0.107
